Laboratory results published in publication PMC12174366 (Nature Communications, 2025).

Target: the molecule itself
Test: cryo-EM structure

B1: full length human TRPML1 with the V432A/A433G mutations (natural protein, UniProt Q9GZU1 1-580, looked up)
chain: MTAPAGPRGSETERLLTPNPGYGTQAGPSPAPPTPPEEEDLRRRLKYFFMSPCDKFRAKGRKPCKLMLQVVKILVVTVQLILFGLSNQLAVTFREENTIAFRHLFLLGYSDGADDTFAAYTREQLYQAIFHAVDQYLALPDVSLGRYAYVRGGGDPWTNGSGLALCQRYYHRGHVDPANDTFDIDPMVVTDCIQVDPPERPPPPPSDDLTLLESSSSYKNLTLKFHKLVNVTIHFRLKTINLQSLINNEIPDCYTFSVLITFDNKAHSGRIPISLETQAHIQECKHPSVFQHGDNSFRLLFDVVVILTCSLSFLLCARSLLRGFLLQNEFVGFMWRQRGRVISLWERLEFVNGWYILLVTSDVLTISGTIMKIGIEAKNLASYDVCSILLGTSTLLVWVGVIRYLTFFHNYNILIATLRVALPSVMRFCCCAGVIYLGYCFCGWIVLGPYHVKFRSLSMVSECLFSLINGDDMFVTFAAMQAQQGRSSLVWLFSQLYLYSFISLFIYMVLSLFIALITGAYDTIKHPGGAGAEESELQAYIAQCQDSPTSGKFRRGSGSACSLLCCCGRDPSEEHSLLVN
- binding result: binds
